Assay results published in the supplement of paper PMC10126150.
± gives the standard deviation of the averaged measurements.

Tested on: ATP
Assay: switch fluorescence ratio, 500 uM ATP over buffer (Cy3 cluster intensity, sum of 5 cycles each) (fold (ratio)); higher = stronger signal-on switching upon ATP binding; sequences stand for … in TCGTCGGCAGCGTCAGATGTGTATAAGAGACAGTTTTTTTTTTTTTTTTTTTTTTTTT…TC
Conditions: aptamer strand: ATP DNA aptamer (quencher-CACCTGGGGGAGTATTGCGGAGGAAGG + anchor), 100 nM annealed; ATP concentration: 500 uM
How it was run: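 Imaging in selection buffer was followed by imaging after 15 min with 500 uM ATP at 22 °C, for Cy3-labelled switching-strand clusters annealed to 100 nM quencher-labelled ATP aptamer on a modified Illumina MiSeq flow-cell. Five of these buffer/ATP cycles ran, separated by NaOH stripping and re-annealing. The fluorescence ratio per cluster is summed target-cycle over summed buffer-cycle Cy3 intensity, averaged per switch-domain sequence; clusters outside 100-1000 RFU were removed.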
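Note: ATP exposure 15 min at 22 °C before imaging.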

| Sequence | switch fluorescence ratio |
| --- | --- |
| TTTATTTTGG | 0.995 ± 0.053 |
| TTTCAAACCT | 1.57 ± 0.64 |
| TTTCAAAGAT | 1.22 ± 0.41 |
| TTTCAAAGGC | 1.17 ± 0.2 |
| TTTCAAATGG | 0.975 ± 0.028 |
| TTTCAACTAC | 1.25 ± 0.23 |
| TTTCAAGATT | 0.998 ± 0.015 |
| TTTCAAGGGA | 0.9904 ± 0.0048 |
| TTTCAATTTG | 1.04 ± 0.049 |
| TTTCACGCAA | 3.98 ± 1.1 |
| TTTCACTTTT | 0.991 ± 0.032 |
| TTTCAGAAGG | 1.01 ± 0.023 |
| TTTCAGACAG | 0.9921 ± 0.0014 |
| TTTCAGCTGG | 0.997 ± 0.027 |
| TTTCAGGTAA | 0.988 ± 0.017 |
| TTTCAGGTCG | 1.02 ± 0.088 |
| TTTCAGGTTG | 0.982 ± 0.041 |
| TTTCAGTGGT | 0.986 ± 0.024 |
| TTTCAGTGTT | 1.05 ± 0.099 |
| TTTCAGTTTC | 1.02 ± 0.043 |
| TTTCATACCT | 1.23 ± 0.14 |
| TTTCATAGCA | 1.283 ± 0.012 |
| TTTCATATGA | 1 ± 0.0082 |
| TTTCATCGCC | 1.01 ± 0.012 |
| TTTCATCTTG | 0.9706 ± 0.0034 |
| TTTCATGAAT | 0.987 ± 0.0027 |

| Sequence | switch fluorescence ratio |
| --- | --- |
| TTTCATGGTG | 1.0484 ± 0.00021 |
| TTTCATGTTA | 0.987 ± 0.0084 |
| TTTCATTAGT | 0.99 ± 0.045 |
| TTTCATTATT | 1.02 ± 0.02 |
| TTTCATTCTT | 1 ± 0.033 |
| TTTCATTGGC | 0.986 ± 0.028 |
| TTTCATTTGT | 1.02 ± 0.075 |
| TTTCCAATCT | 1.08 ± 0.13 |
| TTTCCATATT | 0.984 ± 0.019 |
| TTTCCCATTT | 1 ± 0.064 |
| TTTCCCGGGT | 1.0123 ± 0.00051 |
| TTTCCCTCGT | 1.16 ± 0.17 |
| TTTCCGACGT | 1.46 ± 0.62 |
| TTTCCGGGTG | 2.5 ± 1.1 |
| TTTCCGTGAG | 1.63 ± 0.98 |
| TTTCCTAGTT | 1.032 ± 0.0028 |
| TTTCCTGTGT | 1.01 ± 0.017 |
| TTTCCTTTGT | 1.01 ± 0.049 |
| TTTCCTTTT | 1.014 ± 0.0083 |
| TTTCGAACAT | 1.03 ± 0.068 |
| TTTCGACCGA | 1.03 ± 0.033 |
| TTTCGACCTG | 0.9871 ± 0.0046 |
| TTTCGACGCT | 2.18 ± 0.85 |
| TTTCGAGAAC | 0.9873 ± 0.0066 |
| TTTCGAGGAT | 1.006 ± 0.0044 |
| TTTCGAGGGA | 1 ± 0.025 |

| Sequence | switch fluorescence ratio |
| --- | --- |
| TTTCGATTAC | 1.07 ± 0.018 |
| TTTCGATTGC | 1.004 ± 0.01 |
| TTTCGATTTG | 1.02 ± 0.012 |
| TTTCGCAGAA | 1.1 ± 0.1 |
| TTTCGCCATG | 0.995 ± 0.026 |
| TTTCGCGACA | 1.34 ± 0.5 |
| TTTCGCGGGT | 1.05 ± 0.067 |
| TTTCGCTATG | 1.04 ± 0.024 |
| TTTCGCTCGC | 1.13 ± 0.02 |
| TTTCGCTCTT | 1.12 ± 0.25 |
| TTTCGGAAGC | 1.005 ± 0.0015 |
| TTTCGGACAA | 1.46 ± 0.5 |
| TTTCGGGCGC | 1.05 ± 0.047 |
| TTTCGTAAGA | 0.995 ± 0.016 |
| TTTCGTAGAG | 1 ± 0.011 |
| TTTCGTAGGT | 1.02 ± 0.022 |
| TTTCGTCGGC | 1.048 ± 0.0018 |
| TTTCGTGACT | 1.02 ± 0.035 |
| TTTCGTGGAC | 1.08 ± 0.015 |
| TTTCGTGGTG | 0.997 ± 0.031 |
| TTTCGTTTAC | 1.272 ± 0.0071 |
| TTTCGTTTGG | 0.981 ± 0.042 |
| TTTCGTTTTC | 1.08 ± 0.1 |
| TTTCGTTTTG | 0.998 ± 0.016 |
| TTTCGTTTTT | 0.991 ± 0.038 |
